According to patent US20250026849A1 (ARCELLX, published 2025):

Target: T1, BCMA (Homo sapiens (Human), UniProt Q02223 1-54, limits assumed)
T1 sequence: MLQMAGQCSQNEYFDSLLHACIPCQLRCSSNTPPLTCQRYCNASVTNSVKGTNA
Test: ELISA, format not described
Parameters: unit not given here

B1: D-domain SEQ ID NO: 244 (designed binder)
chain: MGSWYGFKYRLAVIKWYLEALGGSEAELASFEKYIAHFEHDLQAYKGKGNPEVEALRKEAAAIRDELQAYRHN
An ELISA_avg of 9.05 was found for B1 in this work.

B2: D-domain SEQ ID NO: 242 (designed binder)
chain: MGSWSDFKYRLAVIKFYLEALGGSEAELASFESFIAHFEDDLQKYKGKGNPEVEALRKEAAAIRDELQAYRHN
An ELISA_avg of 13 was found for B2 in this work.

B3: D-domain SEQ ID NO: 243 (designed binder)
chain: MGSWSGFKYRLAVIKFYLEALGGSEAELASFELFIAKFEIDLQNYKGKGNPEVEALRKEAAAIRDELQAYRHN
An ELISA_avg of 13.1 was found for B3 in this work.

B4: D-domain SEQ ID NO: 245 (designed binder)
chain: MGSWYGFKYRLAVIKWYLEALGGSEAELASFEKYIAQFEHDLQAYKGKGNPEVEALRKEAAAIRDELQAYRHN
An ELISA_avg of 7.63 was found for B4 in this work.

B5: D-domain SEQ ID NO: 246 (designed binder)
chain: MGSWYGFKYRLALIKWYLEALGGSEAELASFETYIADFEDLLQAYKGKGNPEVEALRKEAAAIRDELQAYRHN
An ELISA_avg of 13 was found for B5 in this work.

B6: D-domain SEQ ID NO: 247 (designed binder)
chain: MGSWSTFKYHLAVIKWYLEALGGSEAELASFEDYIAQFETDLQEYKGKGNPEVEALRKEAAAIRDELQAYRHN
An ELISA_avg of 11.7 was found for B6 in this work.

B7: D-domain SEQ ID NO: 251 (designed binder)
chain: MGSWHGFKYRLAVIKWYLEALGGSEAELAMFEGWIAQFEITLQQYKGKGNPEVEALRKEAAAIRDELQAYRHN
An ELISA_avg of 5.99 was found for B7 in this work.

B8: D-domain SEQ ID NO: 252 (designed binder)
chain: MGSWQGFKYRLAVIKWMLEALGGSEAELAFFENWIAEFETKLQQYKGKGNPEVEALRKEAAAIRDELQAYRHN
An ELISA_avg of 7.75 was found for B8 in this work.

B9: D-domain SEQ ID NO: 253 (designed binder)
chain: MGSWSGFKYRLAVIKWYLEALGGSEAELATFEEWIAEFETELQFYKGKGNPEVEALRKEAAAIRDELQAYRHN
An ELISA_avg of 14 was found for B9 in this work.

B10: D-domain SEQ ID NO: 256 (designed binder)
chain: MGSWQHFKYRLAIIKWYLEALGGSEAELAFFESFIAKFEHDLQKYKGKGNPEVEALRKEAAAIRDELQAYRHN
An ELISA_avg of 8.91 was found for B10 in this work.

B11: D-domain SEQ ID NO: 257 (designed binder)
chain: MGSWNDFKYRLAIIKYYLEALGGSEAELAHFESYIASFEHDLQNYKGKGNPEVEALRKEAAAIRDELQAYRHN
An ELISA_avg of 15.1 was found for B11 in this work.

B12: D-domain SEQ ID NO: 258 (designed binder)
chain: MGSWGAFKYRLAIIKFYLEALGGSEAELARFEEFIANFEHDLQNYKGKGNPEVEALRKEAAAIRDELQAYRHN
An ELISA_avg of 12.9 was found for B12 in this work.

B13: D-domain SEQ ID NO: 259 (designed binder)
chain: MGSWYNFKYRLAIIKFYLEALGGSEAELAQFEIWIAEFEHDLQGYKGKGNPEVEALRKEAAAIRDELQAYRHN
An ELISA_avg of 19.9 was found for B13 in this work.

B14: D-domain SEQ ID NO: 263 (designed binder)
chain: MGSWTAFKYRLAIIKFYLEALGGSEAELAHFESYIAHFEDMLQHYKGKGNPEVEALRKEAAAIRDELQAYRHN
An ELISA_avg of 7.43 was found for B14 in this work.

B15: D-domain SEQ ID NO: 248 (designed binder)
chain: MGSWHEFKYRLALIKWYLEALGGSEAELATFEHHIAQFEWDLQKYKGKGNPEVEALRKEAAAIRDELQAYRHN
An ELISA_avg of 16.2 was found for B15 in this work.

B16: D-domain SEQ ID NO: 249 (designed binder)
chain: MGSWNMFKYRLAHIKWYLEALGGSEAELATFEAYIADFEVDLQKYKGKGNPEVEALRKEAAAIRDELQAYRHN
An ELISA_avg of 16.3 was found for B16 in this work.

B17: D-domain SEQ ID NO: 250 (designed binder)
chain: MGSWHGFKYRLAIIKWWLEALGGSEAELAFFEEWIASFERDLQIYKGKGNPEVEALRKEAAAIRDELQAYRHN
An ELISA_avg of 6.03 was found for B17 in this work.

B18: D-domain SEQ ID NO: 254 (designed binder)
chain: MGSWGYFKYRLAMIKWYLEALGGSEAELASFESWIAEFEGSLQAYKGKGNPEVEALRKEAAAIRDELQAYRHN
An ELISA_avg of 13 was found for B18 in this work.

B19: D-domain SEQ ID NO: 255 (designed binder)
chain: MGSWHAFKYKLAMIKWYLEALGGSEAELAHFEEWIAEFEALLQEYKGKGNPEVEALRKEAAAIRDELQAYRHN
An ELISA_avg of 11.6 was found for B19 in this work.

B20: D-domain SEQ ID NO: 260 (designed binder)
chain: MGSWEQFKYRLAIIKYMLEALGGSEAELAWFESWIANFESDLQHYKGKGNPEVEALRKEAAAIRDELQAYRHN
An ELISA_avg of 11 was found for B20 in this work.

B21: D-domain SEQ ID NO: 261 (designed binder)
chain: MGSWQQFKYRLAIIKYYLEALGGSEAELAGFETYIAKFEEVLQSYKGKGNPEVEALRKEAAAIRDELQAYRHN
An ELISA_avg of 15.1 was found for B21 in this work.

B22: D-domain SEQ ID NO: 262 (designed binder)
chain: MGSWAGFKYRLAVIKYYLEALGGSEAELAHFEQWIAHFEGMLQDYKGKGNPEVEALRKEAAAIRDELQAYRHN
An ELISA_avg of 12.7 was found for B22 in this work.

B23: D-domain SEQ ID NO: 264 (designed binder)
chain: MGSWAHFKYRLAIIKFWLEALGGSEAELANFEEYIAEFESTLQVYKGKGNPEVEALRKEAAAIRDELQAYRHN
An ELISA_avg of 13.1 was found for B23 in this work.

B24: D-domain SEQ ID NO: 265 (designed binder)
chain: MGSWANFKYRLALIKWHLEALGGSEAELASFEIWIADFEESLQWYKGKGNPEVEALRKEAAAIRDELQAYRHN
An ELISA_avg of 14.3 was found for B24 in this work.

B25: D-domain SEQ ID NO: 266 (designed binder)
chain: MGSWATFKYRLALIKWHLEALGGSEAELADFEEYIAGFEEGLQKYKGKGNPEVEALRKEAAAIRDELQAYRHN
An ELISA_avg of 15.1 was found for B25 in this work.

B26: D-domain SEQ ID NO: 267 (designed binder)
chain: MGSWTHFKYRLALIKWWLEALGGSEAELAGFEVHIADFEAQLQMYKGKGNPEVEALRKEAAAIRDELQAYRHN
An ELISA_avg of 7.37 was found for B26 in this work.

B27: D-domain SEQ ID NO: 271 (designed binder)
chain: MGSWNEFKYHLAVIKFYLEALGGSEAELAHFETWIAEFEYELQKYKGKGNPEVEALRKEAAAIRDELQAYRHN
An ELISA_avg of 13.7 was found for B27 in this work.

B28: D-domain SEQ ID NO: 268 (designed binder)
chain: MGSWNTFKYHLAVIKFMLEALGGSEAELAFFEQWIAEFEVTLQSYKGKGNPEVEALRKEAAAIRDELQAYRHN
An ELISA_avg of 10.6 was found for B28 in this work.

B29: D-domain SEQ ID NO: 269 (designed binder)
chain: MGSWTQFKYHLAVIKWYLEALGGSEAELAGFEQWIAEFEKTLQEYKGKGNPEVEALRKEAAAIRDELQAYRHN
An ELISA_avg of 21.1 was found for B29 in this work.

B30: D-domain SEQ ID NO: 270 (designed binder)
chain: MGSWNQFKYRLAVIKFYLEALGGSEAELAHFETWIAAFEEQLQFYKGKGNPEVEALRKEAAAIRDELQAYRHN
An ELISA_avg of 12.8 was found for B30 in this work.

B31: D-domain SEQ ID NO: 272 (designed binder)
chain: MGSWVQFKYHLAVIKFYLEALGGSEAELAHFETWIAEFEVALQGYKGKGNPEVEALRKEAAAIRDELQAYRHN
An ELISA_avg of 12.7 was found for B31 in this work.

B32: D-domain SEQ ID NO: 273 (designed binder)
chain: MGSWVDFKYHLAVIKFWLEALGGSEAELANFETWIANFEQELQMYKGKGNPEVEALRKEAAAIRDELQAYRHN
An ELISA_avg of 13.2 was found for B32 in this work.

B33: D-domain SEQ ID NO: 276 (designed binder)
chain: MGSWSHFKYHLALIKWYLEALGGSEAELAKFEFWIAEFEHNLQMYKGKGNPEVEALRKEAAAIRDELQAYRHN
An ELISA_avg of 7.93 was found for B33 in this work.

B34: D-domain SEQ ID NO: 277 (designed binder)
chain: MGSWYHFKYHLALIKWYLEALGGSEAELAHFEHWIAEFEWTLQQYKGKGNPEVEALRKEAAAIRDELQAYRHN
An ELISA_avg of 8.85 was found for B34 in this work.

B35: D-domain SEQ ID NO: 278 (designed binder)
chain: MGSWQGFKYHLALIKFYLEALGGSEAELAHFEHWLAEFEHDLQTYKGKGNPEVEALRKEAAAIRDELQAYRHN
An ELISA_avg of 21.2 was found for B35 in this work.

B36: D-domain SEQ ID NO: 280 (designed binder)
chain: MGSWSEFKYKLALIKWYLEALGGSEAELAHFEGWIANFETTLQKYKGKGNPEVEALRKEAAAIRDELQAYRHN
An ELISA_avg of 11.3 was found for B36 in this work.

B37: D-domain SEQ ID NO: 285 (designed binder)
chain: MGSWSHFKYHLAIIKFYLEALGGSEAELAGFEIWIAKFEDELQMYKGKGNPEVEALRKEAAAIRDELQAYRHN
An ELISA_avg of 9.34 was found for B37 in this work.

B38: D-domain SEQ ID NO: 274 (designed binder)
chain: MGSWVDFKYHLAVIKWYLEALGGSEAELADFENWIAHFESILQQYKGKGNPEVEALRKEAAAIRDELQAYRHN
An ELISA_avg of 10.4 was found for B38 in this work.

B39: D-domain SEQ ID NO: 275 (designed binder)
chain: MGSWVEFKYHLAVIKFTLEALGGSEAELADFEEEIARFEMILQQYKGKGNPEVEALRKEAAAIRDELQAYRHN
An ELISA_avg of 6.92 was found for B39 in this work.

B40: D-domain SEQ ID NO: 279 (designed binder)
chain: MGSWLSFKHHLALIKWYLEALGGSEAELASFEAWIALFEHQLQQYKGKGNPEVEALRKEAAAIRDELQAYRHN
An ELISA_avg of 6.3 was found for B40 in this work.

B41: D-domain SEQ ID NO: 281 (designed binder)
chain: MGSWIEFKYKLAIIKFYLEALGGSEAELAHFEHWIADFEFVLQQYKGKGNPEVEALRKEAAAIRDELQAYRHN
An ELISA_avg of 14.9 was found for B41 in this work.

B42: D-domain SEQ ID NO: 282 (designed binder)
chain: MGSWQNFKYHLAMIKWYLEALGGSEAELANFEEFIAQFEINLQHYKGKGNPEVEALRKEAAAIRDELQAYRHN
An ELISA_avg of 9.55 was found for B42 in this work.

B43: D-domain SEQ ID NO: 283 (designed binder)
chain: MGSWYNFKYHLAIIKWWLEALGGSEAELADFEHYIADFERNLQEYKGKGNPEVEALRKEAAAIRDELQAYRHN
An ELISA_avg of 8.63 was found for B43 in this work.

B44: D-domain SEQ ID NO: 284 (designed binder)
chain: MGSWYQFKYHLAIIKWYLEALGGSEAELAGFENYIATFEQELQQYKGKGNPEVEALRKEAAAIRDELQAYRHN
An ELISA_avg of 18.4 was found for B44 in this work.

B45: D-domain SEQ ID NO: 286 (designed binder)
chain: MGSWVGFKAHLAIIKWYLEALGGSEAELAGFEIFIADFEALLQMYKGKGNPEVEALRKEAAAIRDELQAYRHN
An ELISA_avg of 9.71 was found for B45 in this work.
